Measurements reported in the supplement of paper PMC9170038.

Test system: MS2 coat protein
Assay: apparent KD of MS2 coat protein; designed switch direction (-1 OFF switch, 1 ON switch): 1; higher = weaker reporter binding
How it was run: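 The reported apparent KD is a per-design median over clusters, from curve fits of normalised cluster fluorescence. Protein titrations used SNAP-549-labelled MS2 coat protein, doubled from 0.7 or 1.5 nM to 3 µM, in Tris-HCl pH 7.5 buffer with KCl, MgCl2, BSA, DTT, tRNA and Tween-20, with no input, 200 uM small-molecule ligand, or an oligonucleotide input. The RNA switches were transcribed on Illumina chips by stalled E. coli RNA polymerase.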

[1] = input ligand: microRNA oligo, concentration not stated
[2] = Eterna round: R95, input ligand: FMN 200 uM
[3] = Eterna round: R95, input ligand: microRNA oligo, concentration not stated
[4] = Eterna round: R95, input ligand: none

Sequence	apparent KD of MS2 coat protein [1]	apparent KD of MS2 coat protein [2]	apparent KD of MS2 coat protein [3]	apparent KD of MS2 coat protein [4]	apparent KD of MS2 coat protein (input ligand: FMN 200 uM)	apparent KD of MS2 coat protein (input ligand: none)
UGCCUGAGUCGAGGAUAUUAUGGAUCAAUUAAUACAUGAGGAUCACCCAUGUAAUUAAUUUAACAUGAGAAGGCGACUCAGGCU [SSNG2/10-A3] (Eterna round: R96, puzzle: Same State NG 2)	7.93 nM	–	–	–	–	–
CGUCCAGCCUGAGCUGGACAAAAGCAUGUACAUGAGGAUCACCCAUGUUCAUGUACAAGCUUUUUGCUCGUCUUAGC [salish99_208a_r3_075] (puzzle: Sensor for hsa-mir-208a)	–	730 nM	14.3 nM	860 nM	–	–
AUGACAUGCACAGGAUAUUAGGCGCAGUACAGAUAAGAAGGGUGGAUCAGCAUACAUGAGGAUCACCCAUGUUGUUGUAACAUG [Same State 1 S2] (Eterna round: R96, puzzle: Same State NG 1)	252 nM	–	–	–	–	–
UAAGGACAUGAGGAUCACCCAUGUGCUUCAUAUGGAGAAACUCAGGAUAUGCUGAGGAUCACCCAGCAGAAGGGAGAUCCGAGG (Eterna round: R96, puzzle: Same State NG 3)	279 nM	–	–	–	206 nM	281 nM
CCGAUGAUAGGACAGGAUAUGACUGUCGUCACAUGAGGAUCACCCAUGUCCCGGCAAUGCCACCGUUAGAAGGGUCCCAUCUCGG [Uslainarin] (Eterna round: R96, puzzle: Same State 2)	18.6 nM	–	–	–	18.2 nM	23.8 nM
AAUUAAUUAAUACAUGAGGAUCACCCAUGUAAUUAUUAGAUCUAGGAUAUCAGCUCGAAUAGAGCUGAGAAGGAGAUCACAUGU [SSNG3/18-B1] (Eterna round: R96, puzzle: Same State NG 3)	14.5 nM	–	–	–	–	–
AGAGGAGGCGCAGGAUAUACGACGGAGGACGUGGUAGAAGGGUGCAUGCGAUGACAUGAGGAUCACCCAUGUACCGCGCGACGA [AK SSNG1-V2-16] (Eterna round: R96, puzzle: Same State NG 1)	14.2 nM	–	–	–	337 nM	78.9 nM
AUAAUACAUGAGGAUCACCCAUGUCAACAAAGUCGAGGAUAUGGGCAAAUAAAAUAAGAACCAGAAGGCGAAUAAU [salish99_ss1_r3_046] (puzzle: Same State 1)	–	34.2 nM	359 nM	240 nM	–	–
CCGGAUAAUGGAGGAUAUGGAGCCUUAUUGGCUCCAGAAGGCUAACAUGAGGAUCACCCAUGUAGUCCGGCGGUCAAUAGACCG [Eli NG1ss - 67] (Eterna round: R96, puzzle: Same State NG 1)	11.5 nM	–	–	–	10.9 nM	21.6 nM
CCAUAACGGUGAGGAUAUCGUUGCGAUAAGUGACGAGAAGGCAUUCAUGUGAAAUAAACAUACAUGAGGAUCACCCAUGUUGUA [Omei SS(NG)1 Bv1] (Eterna round: R96, puzzle: Same State NG 1)	57.2 nM	–	–	–	23.7 nM	57.7 nM
AUUACUAGCAUAGGAUAUCAUGCGAAAAUUGCGUGAGAAGGGUGGACGCUGUCAUUCACGGAAGACAUGAGGAUCACCCAUGUC [SameState NG1 #74] (Eterna round: R96, puzzle: Same State NG 1)	68.5 nM	–	–	–	142 nM	94 nM
GCGAAGAGGUAAGGAUAUUCAUGGCGGAGACAUGAGGAUCACCCAUGUAGGAGACGAAAUCUAAGGGAGAAGGUACCAGGACGC [AK SSNG2-V2-14] (Eterna round: R96, puzzle: Same State NG 2)	147 nM	–	–	–	112 nM	321 nM
GCGAGCGUACUUGCAACAUGAGGAUCACCCAUGUUAACUGGACAGGAUAUGGUACCGUUUCGGUACCAGAAGGGUUCCUCCAUG [JL SSNG3 3.61] (Eterna round: R96, puzzle: Same State NG 3)	134 nM	–	–	–	160 nM	135 nM
AGUCCAGCCUGAGCUGGACAAAAGCAUGUACAUGAGGAUCACCCAUGUCAUGUACAAGCUUUUUGCUCGAAAUAAUA [Mat - hsa-mir-208a - Mod of JL - D32] (puzzle: Sensor for hsa-mir-208a)	–	653 nM	14.6 nM	938 nM	–	–
GAUUAACAUGAGGAUCACCCAUGUCGUUAUAUGGGAGGAUAUACGUGGACCGUAGUCCGCGUAGAAGGCCUAAUUG [Mat - Same State 1 - Mod of JL - D23] (Eterna round: R96, puzzle: Same State 1)	115 nM	–	–	–	67.3 nM	262 nM
AUUAUUAGUGCAGGAUAUGAUUAACAUGAGGAUCACCCAUGUGGUGUUGUGAGUAAGGAGAGUGAUCAGAAGGGCAUUUUUUUU [JMF's solution 21] (Eterna round: R96, puzzle: Same State NG 2)	333 nM	–	–	–	659 nM	406 nM
CCUGACAUGAGGAUCACCCAUGUAGGGAAACAAUGACAUAUGGAGGAUAUACACCCGAAAGGCGCGUAGAAGGUCACAUGUCCA [Eternabot solution 5] (Eterna round: R96, puzzle: Same State NG 3)	10.8 nM	–	–	–	10.7 nM	13 nM
GCAGGACAUGAGGAUCACCCAUGUUCAAAAUAUAGAGGAUAUGGAUACGGUAUAUCCGAACCAGAAGGCUACCUGC [SS1 Teenbexe 23] (puzzle: Same State 1)	–	–	13.7 nM	–	–	–
AAGUGAAUAGUGAUUACAUGAGGAUCACCCAUGUGGUGGAUGCAGGAUAUUAUUAGACCGUACAAUAAGAAGGGCGUAAUCACC [Eternabot solution 44] (Eterna round: R96, puzzle: Same State NG 3)	270 nM	–	–	–	226 nM	403 nM
GGAGCCGGCACCGAGGAUAUUCAUAUUAAAACAUGAGGAUCACCCAUGUACCGCAGAAGCGGUUGGGAGAAGGCGGAUCGGCUCG [Xeonanis - 23] (puzzle: Same State 2)	–	33 nM	271 nM	730 nM	–	–
CUAAAACAUGAGGAUCACCCAUGUCAACAAAGUCGAGGAUAUGGGCAAAUAAAAUAAGAACCAGAAGGCGAAUAAC [salish99_SS1_r3_014] (puzzle: Same State 1)	–	–	222 nM	–	–	–
AUAGUUUCCGAAGGAUAUGAUGAGGAUCACCCAUCAGAAGGUUGGCUAUUGGGCUGACAUGAGGAUCACCCAUGUUUCGGUGUU (Eterna round: R96, puzzle: Same State NG 1)	29.1 nM	–	–	–	33 nM	41.4 nM
GCUCGAUGAGCGGUUUACAUGAGGAUCACCCAUGUACAUGGGCAGGAUAUUUACGUGCUUUGUGUAGAGAAGGGCCCAUCGAGC [SameState NG3 #74] (Eterna round: R96, puzzle: Same State NG 3)	280 nM	–	–	–	92.4 nM	244 nM
UACCAUAGUAUAUUGGUGCAAGCUUUUUGACAUGAGGAUCACCCAUGUACUCGUCUUAUGUGCAGUCCGUAGACUGC [JL-shm-2.22 Brourd mod] (puzzle: Sensor for hsa-mir-208a)	–	57.8 nM	13 nM	54.6 nM	–	–
UGUUAACAUGAGGAUCACCCAUGUCAAAUGAAUGCAGGAUAUGGGAAGUAAUAAGAUAAACCAGAAGGGCAAGUUG [Altered State 1-17 - Jieux - Same State 1] (puzzle: Same State 1)	–	49.4 nM	162 nM	311 nM	–	–
GGUGCCAAUAAAGCCUACAUGAGGAUCACCCAUGUAUGUAGGCAGGAUAUCGUUUGCUUUGCAAACGAGAAGGGCUGAGGCACC [JL SSNG3 1.18] (Eterna round: R96, puzzle: Same State NG 3)	28.6 nM	–	–	–	16.8 nM	38.6 nM
UCUUGGUUUUUGCUCGUUUUUUGUGUUGAACAUGAGGAUCACCCAUGUAUUGUACAGUCCAGUUUAAUAAUGGUCCG [JMF 55] (puzzle: Sensor for hsa-mir-208a)	–	36.9 nM	25.6 nM	38.1 nM	–	–
GGAGCUGUUAUAGGAUAUCCCGCGCAUUACGCGGGAGAAGGGUGACGCUCACAUGAGGAUCACCCAUGUGGCGUUCCAAAAUAA [Rate] (Eterna round: R96, puzzle: Same State NG 1)	8.12 nM	–	–	–	11.8 nM	12.4 nM
UAGCGCUGUCGAGAGGAUAUGCGGUGAUGGACAUGAGGAUCACCCAUGUUAGCGAUAGCAUUACGGUAGAAGGCUCUACAGCUGU [salish99_ss2_r3_093] (puzzle: Same State 2)	–	–	177 nM	–	–	–
